For test [1], the target named is TaqCad1 R408D/A411E variant (Thermoanaerobaculum aquaticum). Nature of the test: SEC.
Test [2] addresses TaqCad1 (CARF-fused adenosine deaminase Cad1 from Thermoanaerobaculum aquaticum), wild type (Thermoanaerobaculum aquaticum). Nature of the test: cryo-EM structure.

The stoichiometry N is a count of units in the complex or per binding partner. Substance TaqCad1 R408D/A411E variant (enzyme) registered a stoichiometry N in test [1] of 2.

“TaqCad1 (CARF-fused adenosine deaminase Cad1 from Thermoanaerobaculum aquaticum), wild type (enzyme)” returned a stoichiometry N in test [2] of 6.
